Measured values taken from patent US20210221894A1 (DRAGONFLY THERAPEUTICS, published 2021).

What was measured:
[1] = molecular target: T1, recombinant human DLL3 (ELISA coat) (human, UniProt Q9NYJ7 27-492); assay: ELISA, plate coated with recombinant human DLL3 0.5 µg/ml, anti-mouse IgG-HRP
T1 sequence: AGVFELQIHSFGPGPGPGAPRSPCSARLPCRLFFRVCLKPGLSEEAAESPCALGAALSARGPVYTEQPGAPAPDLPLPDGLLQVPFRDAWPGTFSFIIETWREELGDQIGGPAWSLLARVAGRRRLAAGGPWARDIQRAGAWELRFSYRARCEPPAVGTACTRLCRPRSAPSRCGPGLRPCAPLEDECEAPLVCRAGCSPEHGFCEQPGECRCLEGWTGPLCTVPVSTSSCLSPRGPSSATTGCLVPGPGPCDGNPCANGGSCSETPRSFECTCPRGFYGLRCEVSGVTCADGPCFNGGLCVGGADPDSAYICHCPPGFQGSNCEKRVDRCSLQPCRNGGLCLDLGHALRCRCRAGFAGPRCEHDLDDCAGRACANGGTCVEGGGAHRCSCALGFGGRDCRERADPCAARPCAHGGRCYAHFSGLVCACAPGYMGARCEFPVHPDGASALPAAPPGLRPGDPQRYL
In short: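 Antibody binding measured on plates coated with recombinant human DLL3 at 0.5 μg/ml, detected with anti-mouse IgG-HRP and TMB substrate. Signals normalized to the matching positive control antibody; EC₅₀ calculated from binding curves.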

[2] = molecular target: T2, recombinant His-tagged EGF3-6 domains of human DLL3 (human, UniProt Q9NYJ7 312-492, limits assumed); assay: SPR (Biacore 8K), 37 C, antibody captured on anti-mouse Fc, DLL3 domain construct injected, 1:1 fit
T2 sequence: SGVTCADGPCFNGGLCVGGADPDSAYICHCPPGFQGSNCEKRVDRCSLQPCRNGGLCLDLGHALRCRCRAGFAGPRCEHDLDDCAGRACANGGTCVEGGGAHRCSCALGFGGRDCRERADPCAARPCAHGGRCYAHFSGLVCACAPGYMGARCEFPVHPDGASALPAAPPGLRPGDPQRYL
Text: (§1) The binding kinetics of different anti-DLL3 antibodies to recombinant proteins of different domains of human DLL3 were studied by surface plasmon resonance (SPR) using a Biacore™ 8K instrument. These anti-DLL3 antibodies were produced from mouse hybridomas, and each included a heavy chain variable region and light chain variable region described herein. Briefly, antibodies recognizing human IgG Fc and antibodies recognizing mouse IgG Fc were immobilized on different channels of a Biacore™ 8K chip to allow simultaneous analysis of human and murine anti-DLL3 antibodies. Murine anti-DLL3 antibodies were captured on the anti-mouse Fc channel of the Biacore chip. The human anti-DLL3 antibody from Stemcentrx (San Francisco, Calif.) was used as a control and was captured onto anti-human Fc channel of the Biacore™ chip. Different concentrations of DLL3 ECD, DLL3 N-terminal domain, EGF2-6, EGF3-6, EGF4-6, or EGF5-6 domains of DLL3 were injected. Experiments were performed at 37° C. Biacore™ 8K evaluation software was used for all data analysis. To obtain kinetic rate constants double-referenced data were fit to a 1:1 interaction model using Biacore™ 8K Evaluation software (GE Healthcare, Marlborough, Mass.). The equilibrium binding constant KD was determined by the ratio of binding rate constants kd/kₐ.
(§2) The binding epitope on DLL3 by the anti-DLL3 antibody which included a heavy chain variable region and light chain variable region of clone 5E7 (see Table 2) was identified by SPR analysis at 37° C.

[3] = molecular target: T3, recombinant His-tagged EGF4-6 domains of human DLL3 (human, UniProt Q9NYJ7 353-492, limits assumed); assay: as above
T3 sequence: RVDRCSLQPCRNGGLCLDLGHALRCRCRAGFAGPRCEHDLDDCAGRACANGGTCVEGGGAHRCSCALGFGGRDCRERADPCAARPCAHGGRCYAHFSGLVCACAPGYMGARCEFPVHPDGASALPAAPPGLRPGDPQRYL
Text: as §1, §2

[4] = molecular target: T4, recombinant His-tagged EGF2-6 domains of human DLL3 (human, UniProt Q9NYJ7 274-492, limits assumed); assay: as above
T4 sequence: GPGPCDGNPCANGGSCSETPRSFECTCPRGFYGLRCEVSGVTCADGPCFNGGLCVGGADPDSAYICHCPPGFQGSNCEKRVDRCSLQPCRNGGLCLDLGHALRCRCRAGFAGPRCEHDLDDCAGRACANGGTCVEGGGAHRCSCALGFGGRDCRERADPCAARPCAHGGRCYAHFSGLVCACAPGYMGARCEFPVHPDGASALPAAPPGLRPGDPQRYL
Text: as §1, §2

human DLL3-His = molecular target: T5, human DLL3-His (human, UniProt Q9NYJ7 27-492); assay: SPR (Biacore 8K), 37 C, m5E7 captured on anti-mouse Fc, DLL3-His 0.411-300 nM injected, 1:1 fit
T5 construct: also called hDLL3
T5 sequence: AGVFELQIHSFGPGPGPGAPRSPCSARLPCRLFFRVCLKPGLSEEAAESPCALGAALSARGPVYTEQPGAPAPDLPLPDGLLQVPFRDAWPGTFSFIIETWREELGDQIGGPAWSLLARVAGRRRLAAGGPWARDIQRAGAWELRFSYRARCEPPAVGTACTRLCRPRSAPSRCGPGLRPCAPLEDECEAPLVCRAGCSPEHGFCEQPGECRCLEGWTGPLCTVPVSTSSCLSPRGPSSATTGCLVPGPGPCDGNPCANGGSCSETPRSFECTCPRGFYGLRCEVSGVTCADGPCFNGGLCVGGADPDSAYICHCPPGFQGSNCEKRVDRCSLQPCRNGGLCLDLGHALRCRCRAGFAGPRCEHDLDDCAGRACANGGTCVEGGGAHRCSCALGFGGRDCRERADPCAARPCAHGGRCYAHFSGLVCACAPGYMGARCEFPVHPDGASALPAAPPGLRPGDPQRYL
Text: The kinetics of binding of different humanized variants and parental murine 5E7 antibody to human DLL3-His was studied by Surface Plasmon Resonance using a Biacore 8K instrument. Briefly, anti-hFc and anti-mFc IgG proteins were covalently immobilized onto different channels of CMS chip to allow simultaneous analysis of human and murine antibodies. m5E7 was captured on the anti-mouse Fc channel and humanized variants were captured on the anti-human Fc channel at a desired capture level of […] in HBS-EP+ buffer supplemented with 0.1% BSA. Three buffer blanks and human DLL3-His (analyte) at concentrations 0.411-300 nM (in three fold dilutions) were injected over the surface with captured murine or humanized 5E7 for 300 second association time and let dissociate for 600 second at a flow rate of 30 μL/min. The surfaces were subjected to regeneration with three 20-second pulses of 10 mM glycine pH 1.70 at a flow rate of 100 μL/min between every concentration of analyte. The experiment was conducted at 37° C. Data were double referenced and a 1:1 fit model was applied to the sensorgrams in the Biacore Insight Evaluation software.
The kinetic parameters of human DLL3-His binding to murine and humanized variants of 5E7 antibody variants were calculated and shown in Table 39.

EC50 [1]: 0.07 nM
Kd [2]: 0.184 nM
koff [2]: 0.000264 s⁻¹
kon [2]: 1.45e+06 M⁻¹ s⁻¹
Kd [3]: 1.12 nM
koff [3]: 0.00061 s⁻¹
kon [3]: 546000 M⁻¹ s⁻¹
Kd [4]: 0.669 nM
koff [4]: 0.000382 s⁻¹
kon [4]: 570000 M⁻¹ s⁻¹
Kd (human DLL3-His): 1.22 nM
koff (human DLL3-His): 0.00145 s⁻¹
kon (human DLL3-His): 1.19e+06 M⁻¹ s⁻¹
B1: murine anti-DLL3 antibody clone 5E7 (antibody, V domains shown)
VH: EVQLQQSGAELVRPGASVKLSCTASGFNIKDDYIHWVKQWPEQGLEWIGWIDSENGDTEYASKFQGKATMTADTSSNTAYLQLSGLTSEDTAVYYCTTSSYYSYDLFVYWGQGTLVTVSA
VL: DVLMTQTPLTLSVPIGQPASISCKSSQSLLHSNGKTYLNWLLQRPGQSPKLLIYLVSKLESGVPDRFSGSGSGTDFTLKISRVEAEDLGVYYCLQTTHLYTFGGGTKLEIK
notes: Murine antibody produced from a mouse hybridoma, captured on anti-mouse Fc in SPR; also called m5E7; murine 5E7
